# Reference: publication doi:10.1101/2025.07.28.667166
# Experiments:
# Assay in all cases: NMR
# His33 = His33 (UniProt position 33, TDWCGHCQAAQ); conditions: 298 K, 1 mM protein
# Cys31 = Cys31 (UniProt position 31, FGTDWCGHCQA); conditions: 298 K; reduced (with DTT), 1 mM protein
# Cys34 = Cys34 (UniProt position 34, DWCGHCQAAQP); conditions: 298 K; reduced (with DTT), 1 mM protein
substance,measurement,setting,value
"Patrx2 (atypical thioredoxin, PA2694) (Pseudomonas aeruginosa)",pKa,"His33; oxidised (C31-C34 disulfide, without DTT)",less than 5
same,pKa,His33; reduced (with DTT),6.3
same,pKa,Cys31,5.8
same,pKa,Cys34,greater than 11.0
